Measured values reported in patent US20120058126A1 (Eli Lilly, published 2012).

Experiments:
[1] = molecular target: T1, human sR3-AP (full-length soluble extracellular region of human VEGFR-3, Ig domains 1-7, fused to human … (human)); assay: SPR, BIACORE 2000 at 20° C, sR3-AP immobilized, antibody injected at 0.8 to 6.25 nM
T1 construct: also called soluble extracellular domain of human VEGFR-3
Procedure: Sensograms are evaluated using the BIA Evaluation 3.2 program to determine the on rates (ka) and the off rates (kd). The dissociation constant (Kd) is calculated from the ka and kd rates using the equation: […].

[2] = molecular target: chimera 2 (human Ig1-mouse Ig2-mouse Ig3) sR3-AP (human; mouse, UniProt P05187 23-511); assay: sR3-AP chimera binding assay on antibody-coated plates
Procedure: (§1) After 2 hr incubation, the plates are washed 5 times and bound sR3-AP is detected by chemiluminescence.
(§2) DNA sequences encoding mouse and human Ig domains 1-3 are swapped in various combinations to form the following VEGFR-3 extracellular domain constructs: i) wild-type human; ii) wild-type mouse; iii) chimera 1 (human Ig1-human Ig2-mouse Ig3); chimera 2 (human Ig1-mouse Ig2-mouse Ig3); (iv) chimera 3 (mouse Ig1-human Ig2-mouse Ig3) and (v) chimera 4 (human Ig1-mouse Ig2-human Ig3). The constructs are expressed as fusion proteins with alkaline phosphatase (AP) Persaud, et al., supra. The encoded proteins are isolated from conditioned media (CM) of transiently transfected cells and normalized to equal protein concentration and AP activity.

[3] = molecular target: chimera 4 (human Ig1-mouse Ig2-human Ig3) sR3-AP (human; mouse, UniProt P05187 23-511); assay: as above
Procedure: as §1, §2

[4] = molecular target: T1, human sR3-AP (full-length soluble …); assay: competitive VEGF-C blocking assay: Fab mixed with 50 ng sR3-AP, plates coated with VEGF-CΔNΔC, OD405; Fab, not IgG
Procedure: After an additional 2 hours, the plates are washed five times and p-nitrophenyl phosphate (Sigma) is added to quantify the bound sR3-AP molecules at OD₄₀₅ₙₘ.

[5] = molecular target: T2, VEGFR-3-cFMS chimeric receptor (extracellular domain of human VEGFR-3 fused with the transmembrane and … (human, UniProt P07333 518-972, limits assumed)); assay: cell-based or functional assay
T2 sequence: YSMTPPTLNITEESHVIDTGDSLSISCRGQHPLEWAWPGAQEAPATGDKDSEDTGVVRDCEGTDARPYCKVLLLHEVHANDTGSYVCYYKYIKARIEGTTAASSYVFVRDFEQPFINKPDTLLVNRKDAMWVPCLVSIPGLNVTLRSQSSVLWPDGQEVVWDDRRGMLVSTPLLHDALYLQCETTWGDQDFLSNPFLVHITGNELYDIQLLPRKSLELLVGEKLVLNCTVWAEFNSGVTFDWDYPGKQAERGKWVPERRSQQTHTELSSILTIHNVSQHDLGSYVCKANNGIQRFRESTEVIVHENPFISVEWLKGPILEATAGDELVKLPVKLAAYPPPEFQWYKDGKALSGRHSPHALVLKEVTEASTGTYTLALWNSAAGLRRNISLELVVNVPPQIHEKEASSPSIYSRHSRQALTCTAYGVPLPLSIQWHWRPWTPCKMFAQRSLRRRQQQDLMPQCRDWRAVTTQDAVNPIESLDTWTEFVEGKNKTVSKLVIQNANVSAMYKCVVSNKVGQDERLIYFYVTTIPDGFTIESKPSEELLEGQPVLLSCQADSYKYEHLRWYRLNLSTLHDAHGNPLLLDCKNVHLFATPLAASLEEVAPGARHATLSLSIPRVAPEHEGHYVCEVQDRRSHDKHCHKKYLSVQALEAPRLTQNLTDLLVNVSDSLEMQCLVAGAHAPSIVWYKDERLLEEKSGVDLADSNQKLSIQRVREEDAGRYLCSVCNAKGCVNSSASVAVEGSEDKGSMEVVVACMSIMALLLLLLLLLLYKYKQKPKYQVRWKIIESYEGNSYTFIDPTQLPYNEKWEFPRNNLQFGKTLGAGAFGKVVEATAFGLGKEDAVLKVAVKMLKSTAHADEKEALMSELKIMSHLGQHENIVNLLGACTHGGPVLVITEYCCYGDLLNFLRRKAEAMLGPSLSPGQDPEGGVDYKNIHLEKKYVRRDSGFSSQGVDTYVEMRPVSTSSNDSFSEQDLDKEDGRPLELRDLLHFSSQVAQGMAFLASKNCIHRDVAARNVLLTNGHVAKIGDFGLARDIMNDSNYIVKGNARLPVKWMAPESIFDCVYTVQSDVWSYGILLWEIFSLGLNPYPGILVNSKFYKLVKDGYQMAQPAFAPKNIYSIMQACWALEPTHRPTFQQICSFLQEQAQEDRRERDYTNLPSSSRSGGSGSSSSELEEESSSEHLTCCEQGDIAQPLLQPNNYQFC

B1: Antibody 1 (IgG form) (antibody, V domains shown)
VH: QVQLQQSGPGLVKPSQTLSLTCAISGDSVSGNSATWNWIRQSPSRGLEWLGRTYYRSKWNHDYAESVKSRITINPDTSKNQFSLQLNSVTPEDTAVYYCARGDSSSWYAFDYWGQGTLVTVSS
VL: EIVLTQSPGTLSLSLGERATLSCRASQSISSSFLAWYQQKPGQAPKLLIYAASTRATGIPDRFSGSGSGTDFTLTISRLEPEDFAVYYCQQYGRSLSFGGGTKVEVKR
notes: also called human anti-VEGFR-3 mAb
For B1, the Kd [1] was 0.056 nM, the binding result [2] was “no binding” and the binding result [3] was “no binding”.

B2: Antibody 1 (Fab form) (Fab, V domains shown)
VH: QVQLQQSGPGLVKPSQTLSLTCAISGDSVSGNSATWNWIRQSPSRGLEWLGRTYYRSKWNHDYAESVKSRITINPDTSKNQFSLQLNSVTPEDTAVYYCARGDSSSWYAFDYWGQGTLVTVSS
VL: EIVLTQSPGTLSLSLGERATLSCRASQSISSSFLAWYQQKPGQAPKLLIYAASTRATGIPDRFSGSGSGTDFTLTISRLEPEDFAVYYCQQYGRSLSFGGGTKVEVK
notes: also called Fab of Antibody 1
B2 showed an IC50 [4] of 2 nM.

B3: recombinant mature human VEGF-CΔNΔC (ligand)
chain: AHYNTEILKSIDNEWRKTQCMPREVCIDVGKEFGVATNTFFKPPCVSVYRCGGCCNSEGLQCMNTSTSYLSKTLFEITVPLSQGPKPVTISFANHTSCRCMSKL
With B3 the “incorporation of [3H]-TdR (mitogenic response)” value [5] was at least 3 fold.
